# B1: mSA-PfRH5-HIS (other)
# chain: AEAGITGTWYNQHGSTFTVTAGADGNLTGQYENRAQGTGCQNSPYTLTGRYNGTKLEWRVEWNNSTENCHSRTEWRGQYQGGAEARINTQWNLTYEGGSGPATEQGQDTFTKVKGGSLSFENAIKKTKNQENNLTLLPIKSTEEEKDDIKNGKDIKKEIDNDKENIKTNNAKDHSTYIKSYLNTNVNDGLKYLFIPSHNSFIKKYSVFNQINDGMLLNEKNDVKNNEDYKNVDYKNVNFLQYHFKELSNYNIANSIDILQEKEGHLDFVIIPHYTFLDYYKHLSYNSIYHKYSTYGKYIAVDAFIKKINETYDKVKSKCNDIKNDLIATIKKLEHPYDINNKNDDSYRYDISEEIDDKSEETDDETEEVEDSIQDTDSNHTPSNKKKNDLMNRTFKKMMDEYNTKKKKLIKCIKNHENDFNKICMDMKNYGTNLFEQLSCYNNNFCNTNGIRFHYDEYIHKLILSVKSKNLNKDLSDMTNILQQSELLLTNLNKKMGSYIYIDTIKFIHKEMKHIFNRIEYHTKIINDKTKIIQDKIKLNIWRTFQKDELLKRILDMSNEYSLFITSDHLRQMLYNTFYSKEKHLNNIFHHLIYVLQMKFNDVPIKMEYFQTYKKNKPLTQHHHHHH
# notes: mSA fused by GGS to PfRH5, C-terminal His tag; also called A9
# B2: mSA-RO-HIS (other)
# chain: AEAGITGTWYNQHGSTFTVTAGADGNLTGQYENRAQGTGCQNSPYTLTGRYNGTKLEWRVEWNNSTENCHSRTEWRGQYQGGAEARINTQWNLTYEGGSGPATEQGQDTFTKVKGGSTSENRNKRIGGPKLRGNVTSNIKFPSDNKGKIIRGSNDKLNKNSEDVLEQSEKSLVSENVPSGLDIDDIPKESIFIQEDQEGQTHSELNPETSEHSKDLNNNGSKNESSDIISENNKSNKVQNHFESLSDLELLENSSQDNLDKDTISTEPFPNQKHKDLQQDLNDEPLEPFPTQIHKDYKEKNLINEEDSEPFPRQKHKKVDNHNEEKNVFHENGSANGNQGSLKLKSFDEHLKDEKIENEPLVHENLSIPNDPIEQILNQPEQETNIQEQLYNEKQNVEEKQNSQIPSLDLKEPTNEDILPNHNPLENIKQSESEINHVQDHALPKENIIDKLDNQKEHIDQSQHNINVLQENNINNHQLEPQEKPNIESFEPKNIDSEIILPENVETEEIIDDVPSPKHSNHETFEEETSESEHEEAVSEKNAHETVEHEETVSQESNPEKADNDGNVSQNSNNELNENEFVESEKSEHEARSKAKEASSYDYILGWEFGGGVPEHKKEENMLSHLYVSSKDKENISKENDDVLDEKEEEAEETEEEELEEKNEEETESEISEDEEEEEEEEEKEEENDKKKEQEKEQSNENNDQKKDMEAQNLISKNQNNNEKNVKEAAESIMKTLAGLIKGNNQIDSTLKDLVEELSKYFKNHRSHHHHHH
# notes: also called A5
# B3: mSA-ID1ID2a-HIS (other)
# chain: AEAGITGTWYNQHGSTFTVTAGADGNLTGQYENRAQGTGCQNSPYTLTGRYNGTKLEWRVEWNNSTENCHSRTEWRGQYQGGAEARINTQWNLTYEGGSGPATEQGQDTFTKVKGGSNYIKGDPYFAEYATKLSFILNPSDANNPSGETANHNDEACNCNESGISSVGQAQTSGPSSNKTCITHSSIKTNKKKECKDVKLGVRENDKDLKICVIEDTSLSGVDNCCCQDLLGILQENCSDNKRGSSSNDSCDNKNQDECQKKLEKVFASLTNGYKCDKCKSGTSRSKKKWIWKKSSGNEEGLQEEYANTIGLPPRTQSLYLGNLPKLENVCEDVKDINFDTKEKFLAGCLIVSFHEGKNLKKRYPQNKNSGNKENLCKALEYSFADYGDLIKGTSIWDNEYTKDLELNLQNNFGKLFGKYIKKNNTAEQDTSYSSLDELRESWWNTNKKYIWTAMKHGAEMNITTCNADGSVTGSGSSCDDIPTIDLIPQYLRFLQEWVENFCEQRQAKVKDVITNCKSCKESGNKCKTECKTKCKDECEKYKKFIEACGTAGGGIGTAGSPWSKRWDQIYKRYSKHIEDAKRNRKAGTKNCGTSSTTNAAASTDENKCVQSDIDSFFKHLIDIGLTTPSSYLSNVLDDNICGADKAPWTTYTTYTTTEKCNKERDKSKSQSSDTLVVVNVPSPLGNTPYRYKYACQCKIPTNEETCDDRKEYMNQWSCGSARTMKRGYKNDNYELCKYNGVDVKPTTVRSNSSKLDHHHHHH
# notes: mSA fused at the amino terminus by Gly-Gly-Ser to the ID1-ID2a domains of VAR2CSA, C-terminal 6x histidine tag; made in baculovirus-infected High-Five cells; also called A4; mSA-VAR2CSA
# B4: mSA-Pfs25-HIS (other)
# chain: AEAGITGTWYNQHGSTFTVTAGADGNLTGQYENRAQGTGCQNSPYTLTGRYNGTKLEWRVEWNNSTENCHSRTEWRGQYQGGAEARINTQWNLTYEGGSGPATEQGQDTFTKVKGGSNKLYSLFLFLFIQLSIKYNNAKVTVDTVCKRGFLIQMSGHLECKCENDLVLVNEETCEEKVLKCDEKTVNKPCGDFSKCIKIDGNPVSYACKCNLGYDMVNNVCIPNECKNVTCGNGKCILDTSNPVKTGVCSCNIGKVPNVQDQNKCSKDGETKCSLKCLKENETCKAVDGIYKCDCKDGFIIDNESSICTAFSAYNILNLSIMFILFSVCFFIM
# notes: also called A10
# B5: HIS-GMZ2ggsmSA (other)
# chain: GSTSENRNKRIGGPKLRGNVTSNIKFPSDNKGKIIRGSNDKLNKNSEDVLEQSEKSLVSENVPSGLDIDDIPKESIFIQEDQEGQTHSELNPETSEHSKDLNNNGSKNESSDIISENNKSNKVQNHFESLSDLELLENSSQDNLDKDTISTEPFPNQKHKDLQQDLNDEPLEPFPTQIHKDYKEKNLINEEDSEPFPRQKHKKVDNHNEEKNVFHENGSANGNQGSLKLKSFDEHLKDEKIENEPLVHENLSIPNDPIEQILNQPEQETNIQEQLYNEKQNVEEKQNSQIPSLDLKEPTNEDILPNHNPLENIKQSESEINHVQDHALPKENIIDKLDNQKEHIDQSQHNINVLQENNINNHQLEPQEKPNIESFEPKNIDSEIILPENVETEEIIDDVPSPKHSNHETFEEETSESEHEEAVSEKNAHETVEHEETVSQESNPEKADNDGNVSQNSNNELNENEFVESEKSEHEARSKAKEASSYDYILGWEFGGGVPEHKKEENMLSHLYVSSKDKENISKENDDVLDEKEEEAEETEEEELEEKNEEETESEISEDEEEEEEEEEKEEENDKKKEQEKEQSNENNDQKKDMEAQNLISKNQNNNEKNVKEAAESIMKTLAGLIKGNNQIDSTLKDLVEELSKYFKNHGGSGAEAGITGTWYNQHGSTFTVTAGADGNLTGQYENRAQGTGCQNSPYTLTGRYNGTKLEWRVEWNNSTENCHSRTEWRGQYQGGAEARINTQWNLTYEGGSGPATEQGQDTFTKVK
# notes: also called A7
# B6: HIS-GMZ2T:ggsmSA (other)
# chain: GSTSENRNKRIGGPKLRGNVTSNIKFPSDNKGKIIRGSNDKLNKNSEDVLEQSEKSLVSENVPSGLDIDDIPKESIFIQEDQEGQTHSELNPETSEHSKDLNNNGSKNESSDIISENNKSNKVQNHFESLSDLELLENSSQDNLDKDTISTEPFPNQKHKDLQQDLNDEPLEPFPTQIHKDYKEKNLINEEDSEPFPRQKHKKVDNHNEEKNVFHENGSANGNQGSLKLKSFDEHLKDEKIENEPLVHENLSIPNDPIEQILNQPEQETNIQEQLYNEKQNVEEKQNSQIPSLDLKEPTNEDILPNHNPLENIKQSESEINHVQDHALPKENIIDKLDNQKEHIDQSQHNINVLQENNINNHQLEPQEKPNIESFEPKNIDSEIILPENVETEEIIDDVPSPKHSNHETFEEETSESEHEEAVSEKNAHETVEHEETVSQESNPEKADNDGNVSQNSNNELNENEFVESEKSEHEARSKTKEYAEKAKNAYEKAKNAYQKANQAVLKAKEASSYDYILGWEFGGGVPEHKKEENMLSHLYVSSKDKENISKENDDVLDEKEEEAEETEEEELEGGSGAEAGITGTWYNQHGSTFTVTAGADGNLTGQYENRAQGTGCQNSPYTLTGRYNGTKLEWRVEWNNSTENCHSRTEWRGQYQGGAEARINTQWNLTYEGGSGPATEQGQDTFTKVK
# notes: also called A8
# B7: HIS-RO-mSA (other)
# chain: GSTSENRNKRIGGPKLRGNVTSNIKFPSDNKGKIIRGSNDKLNKNSEDVLEQSEKSLVSENVPSGLDIDDIPKESIFIQEDQEGQTHSELNPETSEHSKDLNNNGSKNESSDIISENNKSNKVQNHFESLSDLELLENSSQDNLDKDTISTEPFPNQKHKDLQQDLNDEPLEPFPTQIHKDYKEKNLINEEDSEPFPRQKHKKVDNHNEEKNVFHENGSANGNQGSLKLKSFDEHLKDEKIENEPLVHENLSIPNDPIEQILNQPEQETNIQEQLYNEKQNVEEKQNSQIPSLDLKEPTNEDILPNHNPLENIKQSESEINHVQDHALPKENIIDKLDNQKEHIDQSQHNINVLQENNINNHQLEPQEKPNIESFEPKNIDSEIILPENVETEEIIDDVPSPKHSNHETFEEETSESEHEEAVSEKNAHETVEHEETVSQESNPEKADNDGNVSQNSNNELNENEFVESEKSEHEAGGSGAEAGITGTWYNQHGSTFTVTAGADGNLTGQYENRAQGTGCQNSPYTLTGRYNGTKLEWRVEWNNSTENCHSRTEWRGQYQGGAEARINTQWNLTYEGGSGPATEQGQDTFTKVK
# notes: also called A6
# Experiments:
# [1] = target: T1, biotinylated HPV16 Avi-L1 VLP, L1avi3 (DE-loop, HPV16) (Human papillomavirus type 16, UniProt P03101 2-505); experiment: coupling: biotinylated VLPs mixed with excess mSA-antigen, density gradient ultracentrifugation, SDS-PAGE
# T1 construct: also called VLP3; Avi-L1 (DE)
# T1 sequence: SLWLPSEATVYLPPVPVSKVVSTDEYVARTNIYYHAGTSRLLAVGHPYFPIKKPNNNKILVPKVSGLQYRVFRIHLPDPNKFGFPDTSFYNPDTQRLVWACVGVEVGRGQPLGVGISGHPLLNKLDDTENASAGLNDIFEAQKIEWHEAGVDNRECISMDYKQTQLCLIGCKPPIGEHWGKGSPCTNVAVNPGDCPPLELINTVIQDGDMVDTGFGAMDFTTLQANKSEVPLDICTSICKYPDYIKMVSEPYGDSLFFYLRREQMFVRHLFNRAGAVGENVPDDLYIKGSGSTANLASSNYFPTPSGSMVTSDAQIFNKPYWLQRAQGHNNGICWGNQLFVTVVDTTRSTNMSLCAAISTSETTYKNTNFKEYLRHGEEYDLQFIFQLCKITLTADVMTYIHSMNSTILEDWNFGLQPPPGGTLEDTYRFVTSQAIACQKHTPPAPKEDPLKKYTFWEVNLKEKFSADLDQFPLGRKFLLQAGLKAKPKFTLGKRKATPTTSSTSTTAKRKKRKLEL
# [2] = target: T2, biotinylated HPV16 Avi-L1 VLP, L1avi1 (H4-loop, HPV16) (Human papillomavirus type 16, UniProt P03101 14-505); experiment: biotinylated VLPs mixed with excess mSA-antigen, density gradient ultracentrifugation, SDS-PAGE
# T2 construct: also called VLP1; Avi-L1 (H4-βJ coil)
# T2 sequence: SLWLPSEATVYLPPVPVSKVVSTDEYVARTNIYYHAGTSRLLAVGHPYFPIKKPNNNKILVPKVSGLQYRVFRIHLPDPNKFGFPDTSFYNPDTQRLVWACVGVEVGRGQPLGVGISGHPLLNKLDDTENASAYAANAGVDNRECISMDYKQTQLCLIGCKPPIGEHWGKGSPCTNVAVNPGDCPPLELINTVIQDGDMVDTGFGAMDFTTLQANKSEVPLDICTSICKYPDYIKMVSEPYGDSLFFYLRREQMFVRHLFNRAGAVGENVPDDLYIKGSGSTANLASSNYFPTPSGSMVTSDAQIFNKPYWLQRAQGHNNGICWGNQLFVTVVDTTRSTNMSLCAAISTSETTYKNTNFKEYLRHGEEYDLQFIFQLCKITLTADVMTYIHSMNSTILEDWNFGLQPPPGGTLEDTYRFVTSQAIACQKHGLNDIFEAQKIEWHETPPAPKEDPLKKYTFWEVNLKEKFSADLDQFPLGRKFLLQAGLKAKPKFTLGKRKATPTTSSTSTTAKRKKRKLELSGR
Binder,binding result [1],binding result [2]
B1,binds,no binding
B2,,no binding
B3,binds,no binding
B4,,no binding
B5,binds,no binding
B6,binds,no binding
B7,binds,no binding

# Source: patent publication US20190022206A1 (UNIVERSITY OF COPENHAGEN, published 2019)
